Laboratory results from patent EP4713368A1 (dated 2026).

B1: Ab No. 78 (antibody, V domains shown)
VH: EVQLLESGGGLVQPGGSLRLSCAASGFTFDTYSMNWFRQAPGKERELVSAISGVGSTYYADSVKGRFTISRDNSKNTLYLQMNSLRAEDTAVYYCHARGFRLGYDFDYYWGQGTQVTVSS
notes: HCAb format (dimer of VH-hinge-CH2-CH3, no VL, CL or CH1)
B2: Ab No. 70 (antibody, V domains shown)
VH: EVQLLESGGGLVQPGGSLRLSCAASGFTFSDYAMSWVRQAPGKERELVSIISASGGTTYYAGSVKGRFTISRDNSKNTLYLQMNSLRAEDTAVYYCAAHASGSYYLDASRDYDADYWGQGTQVTVSS
notes: as for B1
B3: Ab No. 83 (antibody, V domains shown)
VH: EVQLLESGGGLVQPGGSLRLSCAASGFTFSDHSMNWYRQAPGKERELVSAISGSGGSTYYADSVKGRFTISRDNSKNTLYLQMNSLRAEDTAVYYCNARRYQSSGGDVWGQGTQVTVSS
notes: as for B1
B4: Ab No. 61 (antibody, V domains shown)
VH: EVQLLESGGGLVQPGGSLRLSCAASGFTFDHYAMSWVRQAPGKGLEWVSAISASGDETYYADSVKGRFTISRDNSKNTLYLQMNSLRAEDTAVYYCARDSPHMATYKSYYYYGMDVWGQGTTVTVSS
VL: DIVMTQSPDSLAVSLGERATINCKSSQSLLNARTGKNYLAWYQQKPGQPPKLLIYWASTRESGVPDRFSGSGSGTDFTLTISSLQAEDVAVYYCKQSYSLRTFGGGTKVEIK
notes: IgG format
B5: Ab No. 68 (antibody, V domains shown)
VH: EVQLVESGGGLVQPGGSLRLSCAASGFTFQSYAMNWVRQAPGKGLEWVSYISDDASTIYYADSVKGRFTISRDNAKNSLYLQMNSLRAEDTAVYYCAREVHRGWGAFDIWGQGTMVTVSS
VL: DIVMTQSPDSLAVSLGERATINCKSSQSLLNARTGKNYLAWYQQKPGQPPKLLIYWASTRESGVPDRFSGSGSGTDFTLTISSLQAEDVAVYYCKQSYSLRTFGGGTKVEIK
notes: IgG format
B6: Ab No. 60 (antibody, V domains shown)
VH: EVQLLESGGGLVQPGGSLRLSCAASGFTFDNYAMSWVRQAPGKGLEWVSAISADAGQTYYADSVKGRFTISRDNSKNTLYLQMNSLRAEDTAVYYCARDSPHMATYKSYYYYGMDVWGQGTTVTVSS
VL: DIVMTQSPDSLAVSLGERATINCKSSQSLLNARTGKNYLAWYQQKPGQPPKLLIYWASTRESGVPDRFSGSGSGTDFTLTISSLQAEDVAVYYCKQSYSLRTFGGGTKVEIK
notes: IgG format; also called ADI-83102

Each binder was assayed against T1, human CD28 (human, UniProt P10747 19-152, limits assumed) (assay: selection from yeast-presented heavy chain-only libraries (HCAb format)).
T1 construct: also called Cluster of Differentiation 28; Tp44

Binding result, binds:
B1
B2
B3

What follows are binders tested against T1, human CD28 (assay: selection from yeast-presented libraries of heavy chains and CD3-binding light chains).

Binding result, binds:
B4
B5
B6
